The results in this text go back to the supplement of paper PMC12042874.

± gives the uncertainty stated by the source.

The nature of the data set: amyloid nucleation score (Sup35N fusion, yeast selection) (log enrichment); library NNK2; higher = more nucleation; inactive = no reads after selection. The method, boiled down:
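Sup35N fusions to peptides of 20 random codons were expressed in psi-negative yeast, induced 24 hours with 100 μM copper sulfate, and grown 7 days at 30°C on medium lacking adenine and uracil. Input and output plasmid inserts were sequenced by Illumina. The nucleation score is the DiMSum log enrichment of output over input reads, centred on the mode score of non-aggregating sequences. Sequences with under 100 input reads were excluded.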
FGDSDRMRAGRLWFMWSLVA: the amyloid nucleation score worked out at 0.639 ± 0.35.

Consider LSCCSLIPTHPRPRDNVNEC, for which the amyloid nucleation score was 0.717 ± 0.23.

For EVVLFF, the amyloid nucleation score was -1.35 ± 0.62.

Turning to IFRAYIAGKTIYRCDQYVGM, the amyloid nucleation score is -0.539 ± 0.55.

Substance CARYLIEVRYKGKKIQYSM came in with an amyloid nucleation score of -0.837 ± 0.39.

With SRSSHLM, the amyloid nucleation score came out at 0.073 ± 0.37.

DGTGYGTSKLTWWRDFLKRC: the amyloid nucleation score was -0.192 ± 0.63.

For VNSMAMLCLRICIGTHQMCG, the amyloid nucleation score stood at 5.03 ± 0.054.

For the substance QYSTFATNRVFSKAIMHLSG, the amyloid nucleation score was -0.445 ± 0.36.

With SLSFLKSGPLA, the amyloid nucleation score entry was “inactive”.

KRKKQKFAMLYVSGNLLRRD returned an amyloid nucleation score of 0.234 ± 0.28.

As to MLVLSSFNCRLFKINRLR, the amyloid nucleation score is -0.268 ± 0.45.

As to KFHGSVNGMFPAREITRDLR, the amyloid nucleation score is 0.316 ± 0.23.

For the substance RVTSIVYLKLICFMGVSNLF, the amyloid nucleation score result is “inactive”.

For the substance HVISTSW, the amyloid nucleation score result was “inactive”.

Take KNSGSMIRWIFIRGSTTIEK: the amyloid nucleation score result was “inactive”.

Substance IDIEMIYERKPVGRIFSDT showed an amyloid nucleation score of -1.25 ± 0.42.

Consider SDPSNLSMMCTQQRLAGSD, for which the amyloid nucleation score was -0.189 ± 0.49.

Take HVMCR: the amyloid nucleation score was 0.225 ± 0.19.

In turn, YHTRIYDL registered an amyloid nucleation score of 0.576 ± 0.45.

The substance ASCVVRGQYAQMVYCWRTLG came in with an amyloid nucleation score of -0.072 ± 0.23.

In the case of VSGSSHVVKWVMKEGVIFI, the amyloid nucleation score result was “inactive”.

For RFVYMDIRDMAGWTPLYVYP, the amyloid nucleation score is -1.23 ± 1.

With IERRVTWFLTLARCKLPTGQ, the amyloid nucleation score turned out to be 0.796 ± 0.33.

The substance GRFKITVTRYANVYSMLRVI yielded an amyloid nucleation score of 1.02 ± 0.49.

Substance VYVFDIVRLG yielded an amyloid nucleation score of 0.465 ± 0.8.

On to NCEPELLAVLSRCFSSIWVS, for which the amyloid nucleation score was -1.27 ± 0.78.

With NRAAKRGIRRHMSSYTYARV, the amyloid nucleation score stood at 0.153 ± 0.36.

Turning to ERGGIYWHVGRFSPDSEVTF, the amyloid nucleation score is -0.27 ± 0.76.

The substance VNLWCRYDWGVPGDSWGRDG gave an amyloid nucleation score of 2.92 ± 0.078.

Consider SHQLICFSWRLDFYHRGLLQ, for which the amyloid nucleation score came to 2.5 ± 0.13.

GCSAQACYK: the amyloid nucleation score was 1.03 ± 0.23.

TLAWRSGTRRELKEECNGGW: the amyloid nucleation score turned out to be 1.19 ± 0.59.

TYLMSFICNNLRVDIANINR displayed an amyloid nucleation score of 0.141 ± 0.3.

Turning to GKVGWDCCISQIYCLDLFIP, the amyloid nucleation score was 8.292 ± 0.047.

The substance HMAVNTTALAKNLITG showed an amyloid nucleation score of -0.401 ± 0.55.

CGRRMYKSIVQICMFRGNLN showed an amyloid nucleation score of 0.053 ± 0.79.

Turning to NILLMYFSLK, the amyloid nucleation score turned out to be 5.74 ± 0.049.

In turn, RRRCYHTVSKFRWNIQSAVT displayed an amyloid nucleation score of -0.337 ± 1.

In turn, ASPLQPLSGYVIVRVAPSIT showed an amyloid nucleation score of 0.266 ± 0.51.

Consider LTVVV, for which the amyloid nucleation score was 0.709 ± 0.66.

Substance LLCQITRVAIPCHVCGDDVA registered an amyloid nucleation score of 3.81 ± 0.13.

Turning to FSGFNR, the amyloid nucleation score result is “inactive”.

The substance NYFCIRS returned an amyloid nucleation score of 4.11 ± 0.052.

YGFKGTSLR returned an amyloid nucleation score of -0.506 ± 0.28.

In turn, TMIRYVERMVDNLFRNCRLP yielded an amyloid nucleation score of 0.827 ± 0.2.

Substance HVKASGP showed an amyloid nucleation score of 0.339 ± 0.35.

LYSLWQKRGRRGSYVSPAGS showed an amyloid nucleation score of 2.88 ± 0.13.

The substance GFVERNMYAVDNDFYVQNQT yielded an amyloid nucleation score of -1.2 ± 0.56.

Take NRSVCLYYFAQVYKCCSNAV: the amyloid nucleation score was determined as 3.42 ± 0.14.

Turning to ILVTVNTGSFLKSILHWL, the amyloid nucleation score stood at 2.31 ± 0.19.

Substance PTMFNFKIYQIVRVGLPIHL had an amyloid nucleation score of -1.53 ± 0.76.

SPLCVF had an amyloid nucleation score of -0.211 ± 0.38.

As to RPNDMHTT, the amyloid nucleation score was -0.064 ± 0.26.

On to MISESF, for which the amyloid nucleation score was found to be 0.403 ± 0.56.

The substance CVYPGEMLWRI returned an amyloid nucleation score of -0.609 ± 0.76.

Substance TMIKSQMLYFSGLATRLRLG showed an amyloid nucleation score of 0.098 ± 0.26.

FLNHCDYCVVKSRLVDMKLN registered an amyloid nucleation score of -0.296 ± 0.76.

In turn, FTKKFYWGYPWCYMVF gave an amyloid nucleation score of -0.229 ± 0.8.

FLGYIKSLCMYYRRSGMINA registered an amyloid nucleation score of -2.17 ± 0.62.

Consider ICIVGRWYRASVFRVLEDYR, for which the amyloid nucleation score result was “inactive”.

Consider ICAGISKKSGGTWSRARVCS, for which the amyloid nucleation score entry was “inactive”.

On to YCILLLNVVVMCYMMCDGFA, for which the amyloid nucleation score is 0.635 ± 0.65.

In the case of NSEHTNLSSHLGNIRFINCL, the amyloid nucleation score amounted to 0.037 ± 0.79.

Regarding AEHYECPLCERIETAGCKLV, the amyloid nucleation score turned out to be 0.509 ± 0.24.

On to HFGAFMHCVCTRLKMS, for which the amyloid nucleation score is -0.08 ± 0.61.

Consider MFRVARFSKAYDCTHFVING, for which the amyloid nucleation score amounted to 0.546 ± 0.8.

On to LSAKSTCTAYNRAGSARTEY, for which the amyloid nucleation score was -0.072 ± 1.1.

For SVRFAC, the amyloid nucleation score was -0.114 ± 1.1.

For the substance PRPVLAAALAKPLGTS, the amyloid nucleation score amounted to 0.87 ± 0.23.

In turn, FTGYRAISASLGTYCLKSCG had an amyloid nucleation score of -0.245 ± 0.76.

The substance VTKVLQFCSPSYLLYSRLNV gave an amyloid nucleation score of 0.709 ± 0.47.

KMLSWP yielded an amyloid nucleation score of -0.412 ± 1.1.

For the substance KSPFVICGKRDVRK, the amyloid nucleation score was -1.28 ± 1.1.

Substance FGLYRVRGRSEYRVDHTGWG showed an amyloid nucleation score of 0.534 ± 0.51.

With YFVVL, the amyloid nucleation score is -1.78 ± 0.62.

NAQYGRCSLWCPCPTVWTA: the amyloid nucleation score was determined as 2.24 ± 0.25.

On to KDKGVCSQLYRDLVWRDEVF, for which the amyloid nucleation score is -0.035 ± 0.31.

Take FGKVRESCCLLAY: the amyloid nucleation score was 0.489 ± 0.3.

For the substance VMFEFNLAGSDSSDKAAMVT, the amyloid nucleation score came to 0.014 ± 0.49.

YGQIITSEKNRRNYMCPFSG: the amyloid nucleation score was -0.393 ± 1.1.

LFLCYFIRT displayed an amyloid nucleation score of 2.17 ± 0.1.

On to RLKYHWGGFEA, for which the amyloid nucleation score came out at 0.767 ± 0.4.

IKRSMCICY had an amyloid nucleation score of 0.089 ± 1.1.

On to SIRLYSCSMVLTSSSVNCYQ, for which the amyloid nucleation score came to 1.86 ± 0.17.

In the case of LSFFMPDT, the amyloid nucleation score is -1.53 ± 0.36.

The substance HCGYRVIELDLSRLASRSLR came in with an amyloid nucleation score of 0.195 ± 0.32.

LPFFKIMVRSSYCCNYQG had an amyloid nucleation score of 2.29 ± 0.065.

In turn, GWQGTLVNCLEDYVCYVCHA came in with an amyloid nucleation score of 5.34 ± 0.058.

Take TSFLPELRGLYGRAIVARNY: the amyloid nucleation score was -1.39 ± 1.1.

Substance FFMPKGTLRSIGSLFR registered an amyloid nucleation score of -1.65 ± 1.1.

As to NSRYPDRGILKLVV, the amyloid nucleation score stood at 0.409 ± 0.65.

With NENTLNMMKVWVTGGLSTRK, the amyloid nucleation score was 2.89 ± 0.17.

Take RNLGSCY: the amyloid nucleation score is -0.08 ± 0.46.

The substance ISASGVDSDEGVRPGQLMMC registered an amyloid nucleation score of 10.4 ± 0.065.

FIEHT had an amyloid nucleation score of -0.716 ± 0.45.

For the substance YSKAAIFMESHFLASGNHKA, the amyloid nucleation score is 4.67 ± 0.1.

Regarding SRIRDLVPHIRC, the amyloid nucleation score is -0.594 ± 1.1.

TWDVNVLHVYLSMSSTTLHF had an amyloid nucleation score of -0.46 ± 0.45.

Turning to VGRGASRNFSCFSLVKFREK, the amyloid nucleation score is 3 ± 0.062.

VEREDVHKGRRFAQACNNLV registered an amyloid nucleation score of 0.495 ± 0.41.

GMRSCYWCEPSYCWASA showed an amyloid nucleation score of 2.9 ± 0.066.

YYGALWRYAGMSG had an amyloid nucleation score of -0.472 ± 0.3.

Take MITWCHIVALSNVGTVVSYN: the amyloid nucleation score entry was “inactive”.

LLNRSRSL returned an amyloid nucleation score of -0.723 ± 0.45.

On to VNAPGTSYGYYVLNVQWGGW, for which the amyloid nucleation score amounted to 1.12 ± 0.26.

With TVSLTWEKYNEQIHA, the amyloid nucleation score came to 0.399 ± 0.74.

For GIMSFG, the amyloid nucleation score was determined as 1.66 ± 0.43.

Regarding VSRDLEVH, the amyloid nucleation score is -0.001 ± 0.31.

As for FFSNRNCLE, the amyloid nucleation score was -1.34 ± 0.64.

The substance CASNQCTGP had an amyloid nucleation score of 3.28 ± 0.065.

In the case of RHNRC, the amyloid nucleation score was -0.117 ± 0.79.

For MVIYHVPQYVRYWQP, the amyloid nucleation score stood at 0.017 ± 0.63.

Substance HYAFVLGYKFYYGVANYCDG had an amyloid nucleation score of 0.886 ± 0.66.

Substance KIDSICRYRGPINQLNINPF had an amyloid nucleation score of 0.417 ± 0.4.

Turning to DQEALGRLWYLFAHGSLVTR, the amyloid nucleation score was 0.847 ± 0.44.

With ASFQLELS, the amyloid nucleation score was 0.438 ± 0.38.

As to VVVFMHV, the amyloid nucleation score turned out to be 1.51 ± 0.32.

In turn, FASALNYTLYWSSSLTLFAL registered an amyloid nucleation score of 2.54 ± 0.067.

Substance ESHFCLLATVMKDNLTVGSM yielded an amyloid nucleation score of -0.578 ± 0.45.

SYAYVSKMYVKYCQLKFI yielded an amyloid nucleation score of -0.921 ± 0.78.

Consider DSIARYCVTYLWCNLHLLVK, for which the amyloid nucleation score came to 4.01 ± 0.13.

AYRRYDWYFMLVRLLY came in with an amyloid nucleation score of 0.795 ± 0.5.

Regarding DFSAFNEGHQINHLIQGSV, the amyloid nucleation score is -1.35 ± 0.62.

In turn, MATSMNQHGVRMVWSSRLGS registered an amyloid nucleation score of 4.57 ± 0.051.

On to FLFTQGRLGGGYIVEYLCQL, for which the amyloid nucleation score came to 3.3 ± 0.15.

As to LQANWNDGPVGSSICAACSL, the amyloid nucleation score was -0.746 ± 0.76.

Turning to SPCFWMLPVKKPPACR, the amyloid nucleation score turned out to be 5.082 ± 0.039.

On to FIYQFHVVFLVCQGHNNLYT, for which the amyloid nucleation score is 3.6 ± 0.071.

RTSAPVLRYSVCLNAKYSLG showed an amyloid nucleation score of 0.683 ± 0.21.

As to WLWIKLEPLICSNFCWVVLW, the amyloid nucleation score amounted to 0.537 ± 0.48.

For KTCSDMWYAVRHSNHETSV, the amyloid nucleation score amounted to 1.34 ± 0.52.

ESYCAC registered an amyloid nucleation score of 1.55 ± 0.28.

SVLIFATRKCLYFYLGFMR yielded an amyloid nucleation score of -1.66 ± 0.45.

EYFTYVSAVWKSWCTYGGPA came in with an amyloid nucleation score of 0.529 ± 0.38.

In the case of IRGLGWSAPLRVIRVAPTYV, the amyloid nucleation score amounted to 0.501 ± 0.57.

In turn, SRMLYVQIWREYVNSWKTSS displayed an amyloid nucleation score of -0.356 ± 0.38.

For NSVRSV, the amyloid nucleation score result is “inactive”.

RVDVLIE had an amyloid nucleation score of 9.82 ± 0.048.

The substance TPSKKDGECWNFYRTMWFTG displayed an amyloid nucleation score of -0.492 ± 0.79.

Substance SPMNDLY showed an amyloid nucleation score of 0.041 ± 0.49.

Turning to HVCCLKLVRCAGGGFVVKHV, the amyloid nucleation score was 0.779 ± 0.18.
